# Measurements reported in paper PMC11189301, “Structure of the human outer kinetochore KMN network complex” (Nature Structural & Molecular Biology, 2024).
# Positions count from the first letter of the chain named. Names may count otherwise.
# B1: MIS12 complex (Mis12, Pmf1, Dsn1, Nsl1), wild type, full length (complex, Homo sapiens)
# chain 1: MSVDPMTYEAQFFGFTPQTCMLRIYIAFQDYLFEVMQAVEQVILKKLDGIPDCDISPVQIRKCTEKFLCFMKGHFDNLFSKMEQLFLQLILRIPSNILLPEDKCKETPYSEEDFQHLQKEIEQLQEKYKTELCTKQALLAELEEQKIVQAKLKQTLTFFDELHNVGRDHGTSDFRESLVSLVQNSRKLQNIRDNVEKESKRLKIS
# chain 2: MAEASSANLGSGCEEKRHEGSSSESVPPGTTISRVKLLDTMVDTFLQKLVAAGSYQRFTDCYKCFYQLQPAMTQQIYDKFIAQLQTSIREEISDIKEEGNLEAVLNALDKIVEEGKVRKEPAWRPSGIPEKDLHSVMAPYFLQQRDTLRRHVQKQEAENQQLADAVLAGRRQVEELQLQVQAQQQAWQALHREQRELVAVLREPE
# chain 3: MTSVTRSEIIDEKGPVMSKTHDHQLESSLSPVEVFAKTSASLEMNQGVSEERIHLGSSPKKGGNCDLSHQERLQSKSLHLSPQEQSASYQDRRQSWRRASMKETNRRKSLHPIHQGITELSRSISVDLAESKRLGCLLLSSFQFSIQKLEPFLRDTKGFSLESFRAKASSLSEELKHFADGLETDGTLQKCFEDSNGKASDFSLEASVAEMKEYITKFSLERQTWDQLLLHYQQEAKEILSRGSTEAKITEVKVEPMTYLGSSQNEVLNTKPDYQKILQNQSKVFDCMELVMDELQGSVKQLQAFMDESTQCFQKVSVQLGKRSMQQLDPSPARKLLKLQLQNPPAIHGSGSGSCQ
# chain 4: MAGSPELVVLDPPWDKELAAGTESQALVSATPREDFRVRCTSKRAVTEMLQLCGRFVQKLGDALPEEIREPALRDAQWTFESAVQENISINGQAWQEASDNCFMDSDIKVLEDQFDEIIVDIATKRKQYPRKILECVIKTIKAKQEILKQYHPVVHPLDLKYDPDPAPHMENLKCRGETVAKEISEAMKSLPALIEQGEGFSQVLRMQPVIHLQRIHQEVFSSCHRKPDAKPENFITQIETTPTETASRKTSDMVLKRKQTKDCPQRKWYPLRPKKINLDT
# notes: Mis12, subunit of human MIS12C; Pmf1, subunit of human MIS12C; Dsn1, subunit of human MIS12C; Nsl1, subunit of human MIS12C; The DS tag on Pmf1 is TEV cleavable; a cleavage is not described; also called MIS12C (WT); wild-type MIS12C; source: High-5 insect cells (baculovirus), purified (Strep-Tactin, Resource S, Superdex 200); copies: + + +
# B2: MIS12 complex with Nsl1 E219R V220R F221A (complex, Homo sapiens)
# chain 1: B1 chain 1
# chain 2: B1 chain 2
# chain 3: B1 chain 3
# chain 4: B1 chain 4 with E219R, V220R, F221A
# notes: Mis12, subunit of human MIS12C; Pmf1, subunit of human MIS12C; Dsn1, subunit of human MIS12C; Nsl1, subunit of human MIS12C, E219R V220R F221A; also called MIS12C^(Nsl1-E219R V220R F221A); MIS12C^(Nsl1 E219/RV220R/F221A); source: High-5 insect cells (baculovirus), purified (Strep-Tactin, Resource S, Superdex 200); copies: + + +
# B3: Dsn1-P332W R334A L336R mutant: MIS12C with P332W/R334A/L336R substitutions in Dsn1 (protein)
# chain 1: B1 chain 1
# chain 2: B1 chain 2
# chain 3: B1 chain 3 with P332W, R334A, L336R
# chain 4: B1 chain 4
# modifications: left off: double strep II (DS), C-terminal, state not stated
# B4: MIS12 complex with Dsn1 P332W R334A L336R (complex, Homo sapiens)
# chain 1: B1 chain 1
# chain 2: B1 chain 2
# chain 3: B1 chain 3 with P332W, R334A, L336R
# chain 4: B1 chain 4
# notes: Mis12, subunit of human MIS12C; Pmf1, subunit of human MIS12C; Dsn1, subunit of human MIS12C, P332W R334A L336R; Nsl1, subunit of human MIS12C; also called MIS12C^(Dsn1-P332W R334A L336R); MIS12C^(Dsn1 P332W/R334A/L336R); source: High-5 insect cells (baculovirus), purified (Strep-Tactin, Resource S, Superdex 200); copies: + + +
# B5: Nsl1-E219R V220R F221A mutant: MIS12C with E219R V220R F221A substitutions in Nsl1 (protein)
# chain 1: B1 chain 1
# chain 2: B1 chain 2
# chain 3: B1 chain 3
# chain 4: B1 chain 4 with E219R, V220R, F221A
# modifications: left off: double strep II (DS), C-terminal, state not stated
# B6: Dsn1-P332W R334A L336R and Nsl1-E219R V220R F221A mutants: MIS12C combining the Dsn1 and Nsl1 interface mutants (protein)
# chain 1: B1 chain 1
# chain 2: B1 chain 2
# chain 3: B1 chain 3 with P332W, R334A, L336R
# chain 4: B1 chain 4 with E219R, V220R, F221A
# modifications: left off: double strep II (DS), C-terminal, state not stated
# B7: Knl1 residues 2131–2337, mut2 (S2270R S2272W) (domain or fragment, H. sapiens, UniProt Q8NG31 2131-2337, looked up)
# chain: SLSEWDVVEWSDDQAVFTFVYDTIQLTITFEESVVGFPFLDKRYRKIVDVNFQSLLDEDQAPPSSLLVHKLIFQYVEEKESWKKTCTTQHQLPKMLEEFSLVVHHCRLLGEEIEYLKRWGPNYNLMNIDINNNELRLLFRSWAAFAKFEITLFLSAYYPSVPLPSTIQNHVGNTSQDDIATILSKVPLENNYLKNVVKQIYQDLFQD
# notes: Knl1, human, residues 2131-2337, RWD-C surface mutant 2; also called Knl1^mut2; KNL1^mut2; source: E. coli BL21 (DE3), purified (Ni-NTA, reverse IMAC, Superdex 75); not shown: His6, N-terminal, cleaved
# How the values were obtained:
# [1] = target: T1, MIS12C (WT) (Homo sapiens, UniProt Q6P1K2+Q96IY1+Q9H081+Q9H410); assay: Isothermal titration calorimetry (ITC), peptide titrated into wild-type MIS12C; format: binding; settings: 20 °C, 20 mM HEPES pH 7.5, 100 mM NaCl, 1 mM TCEP, syringe Dsn1^92-113 W96A/R97A/R98A 1.0 mM, cell MIS12C(WT) 0.089 mM, listed as Dsn1^92–113 peptide with three Ala residues
# T1 construct: TEV-cleavable double Strep II (DS) tag (C); made in house; host or cells: High-5 insect cells (baculovirus)
# [2] = target: T2, NDC80 complex (Ndc80, Nuf2, Spc24, Spc25), full length, unmodified (Homo sapiens, UniProt O14777 1-642; Q9BZD4 1-464; Q8NBT2 1-197; Q9HBM1 1-224); assay: SEC; MIS12C variant mixed with NDC80C at 4 µM each; 20 mM HEPES pH 7.8, 150 mM NaCl, 0.5 mM TCEP; Superose 6; fractions on SDS-PAGE; settings: both partners purified
# T2 construct: Ndc80, subunit of human NDC80C; Nuf2, subunit of human NDC80C; Spc24, subunit of human NDC80C; Spc25, subunit of human NDC80C; The DS tag on Nuf2 is TEV cleavable; a cleavage is not described; Ndc80 and Nuf2 were in the cryo-EM sample but not seen at high resolution; also called wild-type NDC80; source: High-5 insect cells (baculovirus), purified (Strep-Tactin, Resource Q, Superdex 200); copies: …
# [3] = tested on: NDC80C; assay: SEC assessment of MIS12C mutants binding to NDC80C; set-up: species or system Homo sapiens; settings: MIS12C mutant + wild-type NDC80 at 4 µM each; 20 mM HEPES pH 7.8, 150 mM NaCl, 0.5 mM TCEP; Superose 6; SDS-PAGE; at least two repeats
# Protocol: Assessment of substitutions in the MIS12C–NDC80C interfaces
# To test the effect of substitutions in the MIS12C–NDC80C interfaces, either wild-type MIS12C or three MIS12C mutants (MIS12C^Nsl1-E219R V220R F221A, MIS12C^Dsn1-P332W R334A L336R, MIS12C^Nsl1-E219R V220R F221A, Dsn1-P332W R334A L336R) were mixed with wild-type NDC80 at 4 µM each in a buffer of 20 mM HEPES (pH 7.8), 150 mM NaCl and 0.5 mM TCEP, and 50 µl was loaded onto a Superose 6 size-exclusion column (Cytiva).
# Extended Data Fig. 7 Biochemical characterization of MIS12C:NDC80C interactions. a Coomassie blue-stained SDS-PAGE gels of the MIS12C:NDC80C interaction reconstitutions. MIS12C (WT), MIS12C with E219/RV220R/F221A substitutions in Nsl1 (MIS12C^Nsl1 E219/RV220R/F221A) and MIS12C with P332W/R334A/L336R substitutions in Dsn1 (MIS12C^Dsn1 P332W/R334A/L336R) were tested for binding to full-length, unmodified NDC80C. The binding experiments were repeated at least two independent times with identical results. The gels are aligned according to the fraction number of the protein sample eluted from the size exclusion column. b SEC elution chromatograms of all of the experiments described in (a). c. Comparison of the Spc24:Spc25 interaction with peptides from MIS12C and CENP-T (PDB ID: 3VZA ref. [29]). Source data
# [4] = target: B1; assay: SEC; MIS12C or MIS12C^Nsl1ΔC mixed with Knl1 2131–2337 or its mutants at 4 µM each; 20 mM HEPES pH 7.8, 150 mM NaCl, 0.5 mM TCEP; Superose 6; fractions on SDS-PAGE; settings: both partners purified
# T2 sequence (O14777 whole entry, chain 1 of 4): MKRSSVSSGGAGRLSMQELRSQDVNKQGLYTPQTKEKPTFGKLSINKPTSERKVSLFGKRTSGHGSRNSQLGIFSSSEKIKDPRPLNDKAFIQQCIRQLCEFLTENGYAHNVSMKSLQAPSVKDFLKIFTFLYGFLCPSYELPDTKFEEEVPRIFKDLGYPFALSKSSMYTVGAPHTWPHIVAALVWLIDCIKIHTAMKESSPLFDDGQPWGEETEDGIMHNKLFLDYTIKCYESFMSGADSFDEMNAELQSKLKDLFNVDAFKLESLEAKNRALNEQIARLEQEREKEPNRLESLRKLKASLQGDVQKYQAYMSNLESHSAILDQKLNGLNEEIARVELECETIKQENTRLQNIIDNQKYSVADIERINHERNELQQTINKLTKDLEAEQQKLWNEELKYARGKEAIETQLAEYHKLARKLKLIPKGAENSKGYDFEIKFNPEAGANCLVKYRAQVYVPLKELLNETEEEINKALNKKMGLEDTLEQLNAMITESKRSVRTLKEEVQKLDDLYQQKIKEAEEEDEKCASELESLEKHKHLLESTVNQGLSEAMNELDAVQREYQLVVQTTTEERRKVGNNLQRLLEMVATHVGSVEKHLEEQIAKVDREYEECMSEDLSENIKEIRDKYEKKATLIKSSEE
# T2 sequence (Q9BZD4 whole entry, chain 2 of 4): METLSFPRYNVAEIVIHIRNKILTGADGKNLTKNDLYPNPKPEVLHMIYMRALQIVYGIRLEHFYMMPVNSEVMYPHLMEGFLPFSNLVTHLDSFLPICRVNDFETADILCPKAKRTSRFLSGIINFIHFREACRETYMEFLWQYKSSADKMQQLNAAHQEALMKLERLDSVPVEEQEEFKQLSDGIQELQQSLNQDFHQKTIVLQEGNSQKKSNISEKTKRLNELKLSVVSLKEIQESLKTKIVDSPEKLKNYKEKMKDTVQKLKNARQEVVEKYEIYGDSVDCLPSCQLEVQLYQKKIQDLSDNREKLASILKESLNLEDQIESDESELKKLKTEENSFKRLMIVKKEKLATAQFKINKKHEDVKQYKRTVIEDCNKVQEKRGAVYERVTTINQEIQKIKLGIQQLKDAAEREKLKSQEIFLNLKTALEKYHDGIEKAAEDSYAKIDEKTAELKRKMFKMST
# T2 sequence (Q8NBT2 whole entry, chain 3 of 4): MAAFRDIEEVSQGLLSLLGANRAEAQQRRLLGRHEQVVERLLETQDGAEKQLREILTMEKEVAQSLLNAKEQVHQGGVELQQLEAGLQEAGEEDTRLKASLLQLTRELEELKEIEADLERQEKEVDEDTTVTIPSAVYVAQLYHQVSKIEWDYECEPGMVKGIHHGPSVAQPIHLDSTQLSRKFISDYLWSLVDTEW
# T2 sequence (Q9HBM1 whole entry, chain 4 of 4): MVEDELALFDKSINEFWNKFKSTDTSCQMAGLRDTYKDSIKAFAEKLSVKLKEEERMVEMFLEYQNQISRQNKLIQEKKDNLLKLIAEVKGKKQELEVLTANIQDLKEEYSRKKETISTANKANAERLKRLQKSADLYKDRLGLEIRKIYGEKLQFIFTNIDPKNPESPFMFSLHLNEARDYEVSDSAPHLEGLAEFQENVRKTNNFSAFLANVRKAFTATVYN
Molecule,binding result [2],"MIS12C–NDC80C interaction by SEC, in words [3]",also measured
"RRQSAAAASMKETNRRKSLHPI-AW [Dsn1^92–113 W96A R97A R98A, Dsn1^92–113 peptide with WRR linchpin substituted by three Ala residues]",–,–,"Kd / interaction of mutant Dsn1^92–113 peptide, in words [1]: completely abolished"
B1,binds,–,–
B2,binds,–,–
B3,–,reduced the affinity of MIS12C for NDC80C,–
B4,binds,–,–
B5,–,reduced the affinity of MIS12C for NDC80C,–
B6,–,completely abolished MIS12C–NDC80C interactions,–
B7,–,–,binding result [4]: binds
